Values quoted from earlier work, collected in article PMC6222470.

Experiments:
[1] = molecular target: histone H3.3K36me3 H3.3 peptide (Homo sapiens) (UniProt P84243)
[2] = molecular target: histone H3 H3K36me3 peptide (Homo sapiens) (UniProt P68431)
[3] = molecular target: histone H3 H3K14ac peptide (Homo sapiens) (UniProt P68431)
[4] = molecular target: histone H4 H4K20me2 peptide (Homo sapiens) (UniProt P62805)
[5] = molecular target: histone H3K14ac peptide H3 tail peptide (Homo sapiens) (UniProt P68431)

Sequence of PHF1 Tudor (O43189 26-89): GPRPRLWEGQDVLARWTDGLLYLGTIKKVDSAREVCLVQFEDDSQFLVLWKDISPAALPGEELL
Sequence of BRM BD BD (P51531 1378-1506): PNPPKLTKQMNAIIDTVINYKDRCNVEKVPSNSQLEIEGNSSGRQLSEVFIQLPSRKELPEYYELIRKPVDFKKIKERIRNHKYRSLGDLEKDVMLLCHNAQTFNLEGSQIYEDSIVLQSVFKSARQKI
Sequence of BRM BD (P51531 1378-1506): as above
Sequence of ZMYND11 PHD-BD-ZnF-PWWP (Q15326 100-371): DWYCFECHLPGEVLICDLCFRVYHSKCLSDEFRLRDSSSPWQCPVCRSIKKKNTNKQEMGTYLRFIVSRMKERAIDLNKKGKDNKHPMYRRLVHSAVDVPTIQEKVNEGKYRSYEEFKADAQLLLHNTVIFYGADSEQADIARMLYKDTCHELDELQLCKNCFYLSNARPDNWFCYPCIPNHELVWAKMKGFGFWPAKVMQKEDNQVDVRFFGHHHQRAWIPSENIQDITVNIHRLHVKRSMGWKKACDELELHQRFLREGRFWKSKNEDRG
Sequence of histone H3.3K36me3 H3.3 peptide (Homo sapiens) (P84243 20-43): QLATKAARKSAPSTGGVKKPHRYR
Sequence of 53BP1 TTD (Q12888 1484-1603): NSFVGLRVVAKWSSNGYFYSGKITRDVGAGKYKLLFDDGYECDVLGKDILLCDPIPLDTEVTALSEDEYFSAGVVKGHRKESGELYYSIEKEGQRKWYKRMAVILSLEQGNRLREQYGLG

**Q.** Which Kd [1] does the source give for “ZMYND11 PHD-BD-ZnF-PWWP (from UniProt Q15326)” here?
**A.** 56 µM

**Q.** For PHF1 Tudor (from UniProt O43189), which Kd [2] is on record?
**A.** 36 µM

**Q.** Which Kd [3] does the source give for BRM BD (from UniProt P51531) here?
**A.** 900 µM

**Q.** For 53BP1 TTD (from UniProt Q12888), which Kd [4] is on record?
**A.** 19.7 µM

**Q.** Which Kd [5] does the source give for BRM BD BD (from UniProt P51531) here?
**A.** 900 µM
